According to patent US20200002425A1:

Legend:
[1] = molecular target: PD-L1 (soluble analyte in the SPR assay) (UniProt Q9NZQ7); assay: SPR, binder immobilized by Fc capture, PD-L1 as analyte, OneStep kinetic analysis on Pioneer FE (Fortebio)
[2] = molecular target: TGFβ2 (UniProt P61812); assay: SPR, binder immobilized by Fc capture, TGFβ2 as analyte, OneStep kinetic analysis on Pioneer FE (Fortebio)
[3] = molecular target: TGFβ1 (human) (UniProt P01137); assay: SPR, binder immobilized by Fc capture, TGFβ1 as analyte, OneStep kinetic analysis on Pioneer FE (Fortebio)
[4] = molecular target: human PD-L1 expressed on cells (H441 lung tumor cells; MDA-MB-231 cells; artificial antigen presenting cells) (human) (UniProt Q9NZQ7); assay: cell-based or functional assay
[5] = molecular target: human PD-L1 expressed on cells (H441 lung tumor cells; MDA-MB-231 cells; artificial antigen presenting cells) (human) (UniProt Q9NZQ7); assay: flow cytometry on PD-L1+ H441 cells, APC anti-human IgG Fc detection; the table has no unit, pM is from the graph's axis Concentration(pM)

Chain of human PD-L1 expressed on cells (H441 lung tumor cells; MDA-MB-231 cells; artificial antigen presenting cells) (human) (Q9NZQ7 19-290): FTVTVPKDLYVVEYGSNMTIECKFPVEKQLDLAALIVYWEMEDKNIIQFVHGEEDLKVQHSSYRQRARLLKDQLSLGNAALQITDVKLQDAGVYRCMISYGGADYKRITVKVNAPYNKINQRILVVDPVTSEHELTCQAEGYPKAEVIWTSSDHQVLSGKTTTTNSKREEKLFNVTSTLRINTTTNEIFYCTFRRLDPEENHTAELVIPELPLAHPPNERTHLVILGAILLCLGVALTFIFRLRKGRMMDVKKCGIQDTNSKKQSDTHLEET
Chain of PD-L1 (soluble analyte in the SPR assay) (Q9NZQ7 19-238 limits assumed): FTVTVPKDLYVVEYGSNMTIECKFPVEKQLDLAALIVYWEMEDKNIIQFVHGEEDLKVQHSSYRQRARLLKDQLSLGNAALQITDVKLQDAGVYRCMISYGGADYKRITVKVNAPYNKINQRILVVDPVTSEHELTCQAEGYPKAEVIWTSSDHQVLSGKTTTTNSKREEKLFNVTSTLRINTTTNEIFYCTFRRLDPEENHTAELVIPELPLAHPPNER
Chain of TGFβ1 (human) (P01137 279-390 limits assumed): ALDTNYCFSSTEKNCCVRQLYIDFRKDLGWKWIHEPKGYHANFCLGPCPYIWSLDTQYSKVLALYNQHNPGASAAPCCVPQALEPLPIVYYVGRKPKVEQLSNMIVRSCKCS
Chain of TGFβ2 (P61812 303-414 limits assumed): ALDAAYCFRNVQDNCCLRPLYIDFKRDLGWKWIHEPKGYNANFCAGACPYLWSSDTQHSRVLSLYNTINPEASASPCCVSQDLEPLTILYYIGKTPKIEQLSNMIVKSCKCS

“αPDL1/TXM/TGFβRII (N-810A); IL-15N72D:αPDL1/IL-15RαSu/Fc/TGFβRII fusion protein complex (from UniProt P40933 49-162) (Fc fusion)” was tested, and the Kd [1] was 7600 pM, the Kd [2] was 520 pM and the Kd [3] was 240 pM. It also gave a maximal killing, ADCC against PD-L1-positive MDA-MB-231 breast tumor cells [4] of 30% and an EC50 [5] of 182 pM.
